These results are taken from patent US9395368B2, “Methods, agents and peptides for inducing an immune response to matrix metalloproteinase-2 expressing tumors” (New York University, priority 2010, dated 2016).

The experiment deals with CD4+ T cells from healthy donors. In words: CD4+ T cells stimulated with autologous DCs loaded with whole MMP-2 protein, response to peptide pool. The experiment is classed as cell-based, human. Conditions: DCs incubated with MMP-2 protein (10 μM), 12 days. On the procedure: (A) MMP-2-specific CD4^+ T cell clones were generated and characterized as described in Experimental Procedures. Clone HD9828/52 is shown as a representative example. Epitope specificities were assessed after overnight stimulation with individual peptides (2 μM). IFNγ, TNFα and IL-4 release was measured by ELISA. (B) All MMP-2-specific CD4^+ T cell clones were characterized by staining for CD4, CD8 and TCR Vβ chain expression. Clone HD9828/52 is shown as a representative example. (C) To establish HLA class-II isotype restriction, CD4^+ T cell clones were stimulated by corresponding peptides in the absence or presence of blocking mAb (10 μg/mL) for HLA-DP, HLA-DQ or HLA-DR and IFNγ release was measured by ELISA. (D) Purified CD4^+/CD25^− cells were stimulated for 12 days by autologous DCs incubated with MMP-2 protein (10 μM) and subsequently washed. MMP-2-specific CD4^+ T cells were detected by intracellular staining of IFNγ, TNFα and IL-4 after 6 hours of stimulation with MMP-2 peptide pool (2 μM). Numbers in the upper right quadrants are the percentages of each population.
T Cell culture, stimulation and priming. Peripheral blood mononuclear cells (PBMCs) were purified from healthy donor-(HD) or cord blood donor-(CB) derived buffy coats (New York Blood Center) by Ficoll-Paque Plus (GE Healthcare) centrifugation. CD4^+/CD25^− cells were enriched (>90%) by magnetic cell sorting (Miltenyi Biotec) and primed/stimulated for 12-15 days either with irradiated (35Gy) autologous CD4^− cells or with autologous mature DCs in IMDM (GIBCO) supplemented with 1 mM HEPES (Life Technologies), 2 mM L-glutamine (Sigma), […] (Sigma) and 5% heat inactivated pooled human serum (PHS; Valley Biomedical) in the presence of rhIL-2 (10 UI/mL) and IL7 (5 ng/mL) (R&D Systems). Antigen presenting cells (CD4^− cells or DCs) were loaded either with peptides (2 μM) or with the MMP-2 protein (10 μg/mL) for 2 and 5 h, respectively. DCs were matured using the TLR3 agonist poly(I:C) at 5 μg/mL/10^6 DCs (Amersham). To generate T cell clones, we originally relied on our published methodology (Godefroy et al., 2006; Godefroy et al., 2007; the entire contents of each of which is incorporated herein by reference), involving enrichment of IFNγ-secreting cells upon short-term culture and peptide stimulation to generate MMP-2 responsive clones. Briefly, CD4^+ T cells were stimulated by CD4^− cells irradiated and pulsed with peptides for 12 days in the presence of rhIL-2 and rhIL-7. CD4^+ T cells were then restimulated with peptides for 3 hours before capturing IFNγ-secreting specific cells using a bispecific antibody coating T cells and capturing produced IFNγ. […]
Intracellular staining T-bet and GATA-3 expression was measured on resting T cells. […]

B1: active MMP-2: Purified human MMP-2 (mixture of the proenzyme (50%) and the active form (50%)) purchased from Biomol (protein, listed as Homo sapiens)
chain: MEALMARGALTGPLRALCLLGCLLSHAAAAPSPIIKFPGDVAPKTDKELAVQYLNTFYGCPKESCNLFVLKDTLKKMQKFFGLPQTGDLDQNTIETMRKPRCGNPDVANYNFFPRKPKWDKNQITYRIIGYTPDLDPETVDDAFARAFQVWSDVTPLRFSRIHDGEADIMINFGRWEHGDGYPFDGKDGLLAHAFAPGTGVGGDSHFDDDELWTLGEGQVVRVKYGNADGEYCKFPFLFNGKEYNSCTDTGRSDGFLWCSTTYNFEKDGKYGFCPHEALFTMGGNAEGQPCKFPFRFQGTSYDSCTTEGRTDGYRWCGTTEDYDRDKKYGFCPETAMSTVGGNSEGAPCVFPFTFLGNKYESCTSAGRSDGKMWCATTANYDDDRKWGFCPDQGYSLFLVAAHEFGHAMGLEHSQDPGALMAPIYTYTKNFRLSQDDIKGIQELYGASPDIDLGTGPTPTLGPVTPEICKQDIVFDGIAQIRGEIFFFKDRFIWRTVTPRDKPMGPLLVATFWPELPEKIDAVYEAPQEEKAVFFAGNEYWIYSASTLERGYPKPLTSLGLPPDVQRVDAAFNWSKNKKTYIFAGDKFWRYNEVKKKMDPGFPKLIADAWNAIPDNLDAVVDLQGGGHSYFFKGAYYLKLENQSLKSVKFGSIKSDWLGC
Take B1: where the note is “donor HD6026”, the “cells secreting IFNγ” value was 0.12% and the “cells secreting IL-4” value came to 0.73%. Besides, under “donor HD6028”, the “cells secreting IFNγ” value came to 0.17% and the “cells secreting IL-4” value is 1.99%.
